Assays:
[1] = tested on: RANK expressing PBMC of a patient suffering from AML (94% blasts); experiment: Chemotherapy resistance model, PBMC of an AML patient, flow cytometry (7AAD and Annexin-V-PE); type: cell-based, human
Procedure: FIG. 1: RANKL mediates resistance of malignant cells to chemotherapeutic treatment. Blood of a patient suffering from acute myeloid leukemia (AML) containing 94% blasts (leukemic cells) was obtained at time of diagnosis prior to treatment and peripheral blood mononuclear cells (PBMC) were isolated by density gradient centrifugation. PBMC were cultured in the presence or absence of doxorubicin (dox, 1 μM) and/or soluble RANKL (sRANKL, 500 ng/ml) as indicated.
RANK expressing PBMC of a patient suffering from AML (French-American-British (FAB) classification: M4; 94% peripheral blood blasts) were subjected to a model of chemotherapyresistance (FIG. 1). To this end, patient blood was obtained at time of diagnosis prior to treatment and PBMC were isolated by density gradient centrifugation. […] Since AML cells of the FAB type M4 resemble monocyte-like cells, this experiment is in line with studies in healthy monocytes showing that sRANKL (Seshasayee et al. 2004, Jour Biol Chem, 279(29):30202-9) acts as a pro-survival factor, likely due to upregulation of anti-apoptotic BCL-2 proteins.

[2] = tested on: MCF10A breast cancer cells; experiment: MCF10A breast cancer cells with sRANKL, Denosumab and paclitaxel, flow cytometry with 7AAD; type: cell-based, human; details: 48 h, paclitaxel 10 nM added after 24 h
Procedure: FIG. 2: Blockade of RANKL by Denosumab overcomes resistance to chemotherapeutic treatment. MCF10A breast tumor cells were cultured for 48 h in the presence or absence of sRANKL (100 ng/ml) and/or Denosumab (20 μg/ml) as indicated. After the first 24 h of culture, paclitaxel (10 nM) was added where indicated. Then the percentage of living and dead cells was determined using flow cytometry with 7AAD.
To this end, it was evaluated if RANKL-induced chemoresistance could be overcome by application of a RANKL-inhibitor in the form of the approved RANKL antibody Denosumab. Therefore, MCF10A breast cancer cells were cultured for 48 h in the presence or absence of sRANKL (100 ng/ml, Immunotools) and Denosumab (20 μg/ml, Amgen) as indicated. After 24 h of culture, paclitaxel (10 nM, Taxomedac) representing a first line breast cancer therapeutic agent, was added where indicated.

[3] = tested on: MCF10A breast cancer cells; experiment: Viability of tumor cells cultured with platelets and Denosumab, ATP content (CellTiter-Glo); type: cell-based, human; details: platelets plus Denosumab, 96 h; paclitaxel for the last 24 h
Procedure: (§1) A2780 ovarian cancer cells (left) and MCF10A breast cancer cells (right) were employed as model to study the influence of RANKL and its neutralization on chemotherapy resistance. To this end, 30,000 tumor cells were cultured in the presence or absence of platelets and Denosumab for 96 h. The indicated concentrations of doxorubicin (left) or paclitaxel (right) were added for the last 24 h. Then cell viability was determined by analysis of ATP content of each sample (CellTiter-Glo assay, Promega). Values obtained with untreated tumor cells were set to 1.
(§2) To assess the role of pRANKL in the context of systemic treatment, the viability of ovarian and breast cancer cells was analyzed. Cells were incubated with human platelets in the presence or absence of Denosumab to neutralize pRANKL which mimics the situation in cancer patients. Presence of platelets enhanced the viability/cellular activity of tumor cells already without chemotherapeutic treatment, and the same was observed upon chemotherapeutic treatment.

[4] = tested on: A2780 ovarian cancer cells; experiment: as above; type: cell-based, human; details: platelets plus Denosumab, 96 h; doxorubicin for the last 24 h
Procedure: as §1, §2

[5] = tested on: SKBR3 breast cancer cell line; details: Schramek et al., Nature 2010; cited from earlier work
melanoma metastasis = details: Jones et al., Nature 2006, cited from earlier work

COc1cccc2c1C(=O)c1c(O)c3c(c(O)c1C2=O)C[C@@](O)(C(=O)CO)C[C@@H]3O[C@H]1C[C@H](N)[C@H](O)[C@H](C)O1 [doxorubicin, reference compound]
percentage of early apoptotic and dead cells compared to the control group ([1]; doxorubicin 1 μM, 48 h of treatment): greatly enhanced | amount of viable AML cells ([1]; ex vivo cancer cell assay, doxorubicin applied): reduced

Denosumab: fully human IgG2 monoclonal antibody specific to RANKL (Amgen); heavy chain SEQ ID 1, light chain SEQ ID 2
effects of chemotherapeutic treatment upon RANKL neutralization (chemosensitivity) ([2]; Denosumab 20 μg/ml with sRANKL 100 ng/ml): restores and even increases the effects of chemotherapeutic treatment | protective effect of platelets on tumor cell viability [3]: substantially reduced | protective effect of platelets on tumor cell viability [4]: substantially reduced

B1: sRANKL: recombinant human soluble RANKL, Immunotools, Germany (protein)
chain: EKAMVDGSWLDLAKRSKLEAQPFAHLTINATDIPSGSHKVSLSSWYHDRGWAKISNMTFSNGKLIVNQDGFYYLYANICFRHHETSGDLATEYLQLMVYVTKTSIKIPSSHTLMKGGSTKYWSGNSEFHFYSINVGGFFKLRSGEEISIEVSNPSLLDPDQDATYFGAFKVRDID
protection from apoptosis induced by doxorubicin [5]: protects the SKBR3 breast cancer cell line from apoptosis induced by doxorubicin | effect of doxorubicin on the amount of viable AML cells in the presence of sRANKL ([1]; ex vivo cancer cell assay, doxorubicin plus sRANKL): neutralized | effect of chemotherapeutic treatment when sRANKL was added ([1]; sRANKL 500 ng/ml added to doxorubicin 1 μM, 48 h): markedly reduced | protection of malignant cells from the effects of chemotherapeutic treatment ([2]; sRANKL 100 ng/ml): protects the malignant cells from the effects of chemotherapeutic treatment

B2: osteoprotegerin: used for in vivo neutralization of RANKL in a mouse model of melanoma metastasis (protein, UniProt O00300 22-401, looked up)
Tumor necrosis factor …: ETFPPKYLHYDEETSHQLLCDKCPPGTYLKQHCTAKWKTVCAPCPDHYYTDSWHTSDECLYCSPVCKELQYVKQECNRTHNRVCECKEGRYLEIEFCLKHRSCPPGFGVVQAGTPERNTVCKRCPDGFFSNETSSKAPCRKHTNCSVFGLLLTQKGNATHDNICSGNSESTQKCGIDVTLCEEAFFRFAVPTKFTPNWLSVLVDNLPGTKVNAESVERIKRQHSSQEQTFQLLKLWKHQNKDQDIVKKIIQDIDLCENSVQRHIGHANLTFEQLRSLMESLPGKKVGAEDIEKTIKACKPSDQILKLLSLWRIKNGDQDTLKGLMHALKHSKTYHFPKTVTQSLKKTIRFLHSFTMYKLYQKLFLEMIGNQVQSVKISCL
protection from paralysis (melanoma metastasis): complete protection from paralysis | tumor burden in bones (melanoma metastasis; in bones, but not in other organs): marked reduction in tumor burden in bones

Reference: patent US20190218302A1, “ANTI-CANCER COMBINATION TREATMENT” (PROBIOCON GMBH, priority 2016, published 2019)
